This note sets out measurements from PMC2174084.

This test concerns the target rabbit skeletal muscle actin, polymerized (F-actin) (rabbit) (UniProt P68135). Description: co-sedimentation.

Take “full-length Kelch (purified, recombinant; ORF1 cDNA) (natural protein)”: the stoichiometry N (Kelch per actin (molar ratio)) was 0.25.
